The values below come from patent US9119806B2, “Culturing circular ssDNA viruses for the production of vaccines” (priority 2007, dated 2015).

Test [1] concerns PCV2 proteins in PK-15 cells. Put plainly: Expression kinetics of PCV2 proteins (capsid, REP) in PK-15 cells, immunofluorescence. Format: cell-based, Porcine circovirus 2. The method, then: To determine the timing and localisation of PCV2 proteins expression (Capsid protein and REP), PK-15 cells were seeded on glass cover slips and inoculated with PCV2. After inoculation, culture medium was added with or without 500 U/ml IFN-gamma. At 0, 12, 24, 36, 48 and 72 hpi the cells were fixed in methanol at −20° C. Afterwards, a triple immunofluorescence staining was performed to visualize both viral proteins and the cell nucleus. PCV2 capsid protein was detected using purified biotinylated porcine polyclonal anti-PCV2 immunoglobulins which only react with PCV2 capsid proteins. Bound porcine immunoglobulins were visualized with streptavidin conjugated Texas Red (molecular probes, Leiden, The Netherlands). In a second step, the REP protein was detected with a specific mouse monoclonal antibody (F210) visualized with goat-anti-mouse FITC (molecular probes, Leiden, The Netherlands). In a final step, the nuclei of the cells were visualized with Hoechst 33342 (Molecular Probes, Oreg., USA) at a concentration of 0.1 mg/ml. The number of cells with capsid and/or REP protein was counted and the localisation of viral antigens was monitored by fluorescence microscopy.

For the next test, the system named is PCV2 in PK-15 cells. The experiment in a line: Progeny PCV2 virus production in PK-15 cells with IFN-gamma. Format: cell-based, Porcine circovirus 2. Here is the method: The influence of IFN-gamma on the production of progeny virus in PCV2-infected cells was determined by inoculating PK-15 cells with the standard PCV2-stock. After the inoculation, culture medium was added supplemented with IFN-gamma (500 U/ml). At 0, 12, 24, 36, 48 and 72 hours post inoculation (hpi) the supernatant was collected. Subsequently the culture was washed once with 1 ml PBS. Both the supernatant and the washing fluid were centrifuged for 10 minutes at 15,000×g to pellet cells and debris. The centrifuged supernatant and washing fluids were combined and considered to contain the extracellular virus. Both pellets and cell cultures were freeze-thawed tree times and considered to contain the intracellular virus. Intra- and extracellular virus titres were determined by titration on PCV-negative PK-15 cells as described previously.

The next test has as its system EMC virus. The conditions noted are these: porcine PK-15 cells infected with EMC virus; supplier leaflet, typical; cited from earlier work.
The test system of test [2] is PCV2 (field strain Imp-1121). The experiment in a line: PCV2 replication in inoculated pigs given IFN-gamma or ConA. Format: in vivo. The note with it: pigs inoculated at 19 days of age; samples 10, 15, 21 days post inoculation. The method, then: Pigs are inoculated with PCV2 (field strain Imp-1121) at 19 days of age. These inoculated pigs are divided in 3 groups. One group contains control pigs (only PCV2). The second group of pigs receives recombinant IFN-gamma (100,000 U per pig every three days). The third group contains pigs that receive ConA (1.5 mg/kg every three days). At different times post inoculation (10, 15, 21 days) samples are collected and the replication of the virus is assessed.

Test [3] has as its system PCV2-infected 3D4/31 cells. The experiment in a line: Number of PCV2-infected 3D4/31 cells (IPMA) after cytokine treatment. It counts as cell-based, Porcine circovirus 2. The conditions noted are these: for increase in PCV2-positive cells: 3D4/31. The text has this: In order to use cells, more related to the target cells in vivo, the monocytic cell line 3D4/31 was used to confirm the effect of the different cytokines on the number of PCV2-infected cells. The 3D4/31 cell line is a porcine monomyeloid cell lines that was established following transfection of primary porcine alveolar macrophage cultures with plasmid pSV3neo, carrying genes for neomycin resistance and SV40 large T antigen. (Weingartl et al. (2002) J Virol Methods. 10, 203-216). These cells were maintained in a 1:1 mixture of RPMI-1640 (Invitrogen) and DMEM (Invitrogen) supplemented with 10% fetal bovine serum, 0.3 mg/ml glutamine, 100 U/ml penicillin, 0.1 mg/ml streptomycin, 0.1 mg/ml kanamycin and 1% non-essential amino acids 100× (GIBCO BRL®, Grand Island, USA). These experiments were also performed in 96-well plates containing the same number of cells. Furthermore, to monitor the effect of IFN-gamma on the entry of PCV2 virion-like particles was determined, 3D4/31 cells were seeded at 2×10^5 cells/ml of medium onto microscopic slides mounted with an 8 well cell culture silicone chamber (Vivascience AG, Hanover). In all inoculations, the same PCV2-strain (Stoon-1010) was used at a multiplicity of infection of 0.01. The virus was diluted in MEM and inoculated on the cell cultures by incubating cells and virus for 1 hour at 37° C. After 1 hour, the inoculum was removed, the cultures were washed twice with MEM and new culture medium was added.
The influence of the cytokines on the infection of PCV2 in PK-15 and 3D4/31 cells was determined by adding two-fold-dilution series of the cytokines to the medium of the cells before, during or after the inoculation. IL-1, IL-6, […] and IFN-alpha were used in concentrations ranging from 0.25-250 Units/ml (U/ml), IFN-gamma was used in concentrations ranging from 0.25-1000 U/ml and IL-10 was used in concentrations from 0.13-125 U/ml. Cell cultures were either pre-treated with the cytokines for 24 hours before inoculation, treated during the inoculation or the cytokines were added in the medium after the inoculation. After 36 hours of incubation at 37° C. in an environment supplemented with 5% CO2, the cells were fixed by drying and frozen at −20° C. The plates were stained with an immuno-peroxydase monolayer assay (IPMA) as described by Sanchez et al. (2003, Vet Microbiol 95, 15-25) and the number of PCV2-positive cells was counted by light microscopy. In each plate a control was inoculated with an equal dose of mock-treated PCV2 (treated with MEM without cytokines). The number of infected cells in this well was used as the reference and all results were expressed as a ratio to this reference.

Test [4] concerns PCV2 capsids in 3D4/31 cells. Put plainly: Entry (internalization) of PCV2 recombinant capsids in 3D4/31 cells. It counts as cell-based, Porcine circovirus 2. The conditions noted are these: 3D4/31 cells treated with IFN-gamma. Here is the method:
To study the internalization of recombinant capsids on 3D4/31, cells were washed with RPMI-1640 at 37° C. and then incubated with capsids at 37° C. for 15 minutes followed by washing of unbound capsids. Cells were then fixed with a 3% solution of paraformaldehyde (rPBS) for 10 minutes at 30, 60 and 120 minutes since the addition of capsids into the cells, washed with PBS, and permeabilized in a 0.1% Triton X-100 solution in rPBS. Capsids were stained by incubating the calls with a biotin-conjugated anti-PCV2 swine polyclonal antibody followed by streptavidin-FITC (Molecular Probes, Eugene, Oreg.).

Where [5] appears, read: treated (500 U/ml) and non-treated PK-15 cells.

B1: IFN-gamma: Porcine interferon gamma purchased from R&D systems (protein, UniProt P17803 24-166, looked up)
Interferon gamma: QAPFFKEITILKDYFNASTSDVPNGGPLFLEILKNWKEESDKKIIQSQIVSFYFKFFEIFKDNQAIQRSMDVIKQDMFQRFLNGSSGKLNDFEKLIKIPVDNLQIQRKAISELIKVMNDLSPRSNLRKRKRSQTMFQGQRASK
Consider B1, for which, in test [1] (PK-15, 500 U/ml after inoculation), the “influence on sequence of events of PCV2 protein expression (in words)” value is listed as “did not influence”. Besides, the “first nuclear localisation of both proteins” value in test [1] (both cultures) amounted to 24 hpi. The “first detection of REP protein” value in test [1] (setting [5]) amounted to 24 hpi. Further, the “first detection of capsid protein” value in test [1] (setting [5]) stood at 12 hpi. In addition, in the test with PCV2 in PK-15 cells (500 U/ml after inoculation, 72 hpi), the “total PCV2 production higher compared to non-treated cells” value is 1.3 log10 TCID50. In addition, the “extracellular and intracellular virus production (in words)” value in the test with PCV2 in PK-15 cells (500 U/ml, compared to non-treated control cells) was “increased”. Besides, the “ED50 for anti-viral effect” value with EMC virus was 0.015 to 0.045 ng/mL. In addition, in test [2], the “replication of PCV2 compared to control pigs (in words)” value is “increase in the replication of PCV2”. Also, the entries for the “increase in PCV2-positive cells” value in test [3] (treated after inoculation), in test [3] (treated before inoculation) and in test [3] (treated during inoculation) were 523±115%, 806±88% and 214±16%, respectively. In addition, the “change in the number of PCV2-positive cells (in words)” value in test [3] (3D4/31 cells, any concentration, before, during or after inoculation) was “dose-dependent increase”. Moreover, the “number of internalized virions (in words)” value in test [4] is given as “significant increase”.
